experiment: yeast display, Sf9 membrane polyspecificity reagent, FACS + sequencing; frameworks hold sequencing errors
Outline: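 After 36–48 hours of galactose induction, yeast (Saccharomyces cerevisiae BJ5465) displaying a synthetic nanobody library were stained at 4 °C for 1 hour with 10% biotinylated, detergent-solubilized Sf9 membrane reagent. Streptavidin microbeads enriched the stained cells before FACS sorting into low and high (top ~1%) gates on anti-HA and streptavidin fluorescence. Each clone's polyreactivity label reflects its gate of origin.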

Sequence	polyreactivity (PSR sort gate)
QLQLVESGGGLVQAGGSLRLSCASSGSIFLFNAMGWYRQAAGQERELVAAITSSGTRTYYADSVKGRFTISRDNAKNTVYLQMNSLKPEDTAVYYCNAVGPVDSYHRYYYWGQGTQGTVSS	low polyreactivity
QLQLVESGGGLVQAGGSLRLSCASSGSNFQPYAMGWYRQAPGIERELVAAISRGGTTYYADSVKGRFTISRDNAKTTVYLQMNSLKPEDTAVYYCAADSYKPDGYRLRNDYWGQGTQVIVSS	high polyreactivity
QLQLVESGGGLVQEGGSLRLSCAASGSTFVYNDKGWYRQAPGKDRELVAAITSGVRTYYSDYVKGRFTISRDNAKNTVYLQMNSLKPEDTALYYCGTGWRYAQYYYWGQGTQVTVSS	high polyreactivity
QLQLVESGGGVVQAGGSLRLSCAASGGIFDRYAMGCDRQAPGKERELVAAITSGGSTNYADSVKGRFTISRDNAKNTVYLQMNSLQPEDTAVYYCNADLGILSGVAEGPTFREYDYWGQGTQVTVSS	low polyreactivity
QLQLVESGGRLVQAGGSLRLSCAASGFIFRWNAMGCYIQAPGKASEFVAAITSSTGSTYYAVSVKGRFTISRDNAKNTVYLQMNSLKPEDTAVYDCAADKRGTVYLSSFWMDYWGQGTQVTVSS	low polyreactivity
QLQLVESGGVLVQAGGSLRLSCAASGTFYGYVMGWYRQAPGKERELGASINWSGGSTNYADSVKGRFTISRDNAKNTVFFQMNSRKPEDTAVYYCNADWGWGAYDYWGQGTQVTVSS	low polyreactivity
QLQLVESGRGLVQAGGSLRLSCAPSGRILVLIAMGWYRQATGKERELVADITSGGSTYYADSVKGRFTISRDNAKKTVYLQMNSLKKEDTAVYYCAADWNTYPDYQQSYFVCYEYNYWGQGTQVTVSS	low polyreactivity
QLQLVESGRGLVQAGGSLRLSCDASGYIFGWYAMGSYRQAPGKERELVAAITRGVSTNYADSVKGRFTISRENAMNTVYLQMNSLKPEDTAVYYCNTEDWAVGSPEVEYEYDYWGQGTQVTVSS	low polyreactivity
QLQLVESVGGLVQAGGSLRLSCASSGRTFDYNAMGWYRQAPGKERELVARISNGDSTYADSVKGRFTISRDNAKNTVYLQMNSLKPVDTAVYYCAKSTRRGGVALGEYDYWGQGTQVTVSS	low polyreactivity
QLQLVETGGGIVQAAGSLRLSCAASGFTYNRYAKGWYRKAPGKERELVAAISRGGTTYADSVKGRFTISRDNAKNTVYLQMNSLKPEDTAVYYCNRLRYGYPQEFGYWGQGTQVTVSS	high polyreactivity
QLQLVETGGGLVQAGGSLRLSCAATGSTFQGYPMGWYRQAPGKDRELVAAISWNGGSTYYADSVKGRFTISRDNAKNTVYLQMNSLKPEDTAVYYCAAYSFAYSYNYWGQGTQVTVSS	high polyreactivity
QLQLVQSGGGLVQAGGSLRLSCAASGITSPYAMGWYRQAPGKERELVARNSKGGGSTYYADSVKGRFTISRDNAKNTVYLQMNSLKPEDTAVYYCAADWYNRSRPRYYTRYYYWGQGTQVTVSS	high polyreactivity
QVEHVESGGALGQAGGSLRLSCAASGITFAPYAMGWYREAPGKETEFDAGINTGGSKYYADSVKGRFTISRDNAKNTFYVQMNSLKPEDTAVYFCATESYPADQDIPGSDYWGQGTQVTVSS	low polyreactivity
QVELQVSGGGLVRAGGSLRLSCAASGNIFDADIMGWYRQAPGKERELVASITGGGSTSYAESAKGRFTISRDNAKNAVYLQMNSLKPEDTAVYYCAKDGYVYGDWYTYAYDYWGQGTQVTVSS	low polyreactivity
QVELVESAGGLVQAGGSLRLSCAASGRIFAYNAMGWYRQAPGKERELVAAISQSGGSTYYADSVKGRFTISRANAKNTVYLQLNSLKPEDTAVYYCHAVYGRQYRGYNYKYYYWGQGTQVTVSS	high polyreactivity
QVELVESGAGLVQAGGSLRLSCAASGRIFRYYVKGWYRQAPGKESELVAAISSGGSTNYADSVKGRFTISRDNAKNTVYLQMNSLKPEDTAVYYCNRDIGGSSVLDDYWGQGTQVTVSS	low polyreactivity

Sequence	polyreactivity (PSR sort gate)
QVELVESGGGLVQAGGSLRLSCAASGITFYVYTMGWYRQAPGKERELVAAINGSGGSTNYADSVKGRFTISRDIAKNTVFLQMNSLKPEDSAVYYCAADWSLRLYDYWGQGTQVTVSS	low polyreactivity
QVELVESGGGLVQAGGSLRLSCAASGRIFSPNAMGWYRQAPGKERELVAALTGSGGTTYYADSVKGRFKISRDNAKNTVYLQMNSLKREDTAVYYCAADLYPFSRNPRYQFLYNYWGQGTQVTVSS	low polyreactivity
QVELVESGGGLVQAGGSLSLSCAASGFTFVGNTMGWYRQAPGKEREWGAAIRGRDGRTYYADSVKGRFTISRDKAKNTVYLQMNSLKPEETAVYYCNVDVKYSVRSEIDYWGQRTQVTVSS	low polyreactivity
QVELVESGGGLVQGGGTLRLSCAASGRTFNRYAMGWYRQAPGKERELVASITRSGGSTYYADSVKGRFTISRENAKNTVSLQMNSLKPDHTAVYYCANRSSGCFGYWGQGTQVTLSS	high polyreactivity
QVHHVESAGGLVQAGGILRLSCAASGRTFGANAMGWYRQPPVKERELVAAISKSGGRTYYADSVTGRFTISRDNAKNTVYLQMNSLKPEDTEVYYCNKVMCVSQAGGFDYWGQGTQVTVSS	high polyreactivity
QVHHVESGGGLVQAGGSLRLSCAAYGFIFNVYAMGWYRQAPGKERELVAAISTSGSNTYYADSVKGRFTISRDNAKNTVYLQMNSLKPEDTADYYCAAAYRYPSGRSFGYWGQGTQVTVSS	high polyreactivity
QVHHVESGGGVVQAGGSLRLSCAASGRITYVNAMGWYRQPPGKESELVATITGSGDSKHYADSVKGRFTISRDNAMNTVYLQMNSLKPEVTAVYYGAADVYRYWQIYEYWGQGTQVTVSS	low polyreactivity
QVHIVESGGGLDQAGGSLRLSCAASGFTFNAYAMGWYRQAPGKERELVAAISGRGSSTYYADSVKGRFTISRDNAKNTVYLQMNSLKPEDTEVYYCATKFYYQYPYRGDYWGQGTEVTVSS	high polyreactivity
QVHLEESGGGLVQAGGSLRISCAASGSTFYYYAMGWYRQAPGKERELVAAISNRDGRTYYADSVKGRFTISRDNAKNTVYLQMNSLKPEDSAVYYCNAYSYGHYYWGQGTQVTVSS	high polyreactivity
QVHLEESGGGLVQAGGSLRLSCAASGGTILAYAMGWYRQAPGKERELVAAITRRGTRTYYADSVKGRFTISLDNAKNTVYLQMNSLKPEVTAVFYCAVSGGFYWGQGTQVTVSS	high polyreactivity
QVHLEESGGGLVQAGGSLRLSCAASGIIFHFNDRGWYRQATGKERELVAAITSGGSTNYADSVKGRFTISRDNAKNTVYLQMNSLKPEDTAVYYCAARRCLRLFAYRHGYWGQGTQVTVSS	low polyreactivity
QVHLEESGGGLVQAGGSLRLSSAASGSNFDYNAMGWYRQAPGKERELVAAISRTGGRTYYADSVKGRFTISRDNAKNTVYLQMNSLKPEDTAVYYWNAVNRIGGGDYDYWGLGTQVTVSS	low polyreactivity
QVHLEESGGRLVQEGGSLRISCAASGSILRSYAMGWYRQAPGKERELVAVINRGTSTNYADSVKGRFTISRDNAKNTVYLQMNSVKPEDTAVYYCAVAVLPWQLDSESYAEYDYWGEGTQVTVSS	low polyreactivity
QVHLEESGRGLLQAGGSLRLSCDASGSTQNLYVMGWYRQAPGKESELVAAITSRGGRTYYADSVKGRFTISRDNAKNTVYLHMNSLKPEDTAVYYCAATKKTGYYRYYYWGQGTQVTVSS	high polyreactivity
QVHLGDSGGGLVQAGGSLRLSCAASGRIFWTYAMGWYRQAPGKERELVAAIRWSSGSTRYADSVKGRFTISRDNAKNTVYLQLNSVKPEDTAVYYCAADAFRSQRPYTYDYWGQGTQVTVSS	high polyreactivity
